Substitutions are numbered along the chain they refer to.
B1: 534-max (scFv)
chain: EIVMTQSPSTLSASVGDRVIITCQASQSINIWLSWYQQKPGKAPKLLIYKESTLASGVPSRFSGSGSGTEFTLTISSLQPDDFATYYCQNNYDSGNNGFPFGQGTKLTVLGGGGGSGGGGSGGGGSGGGGSEVQLVESGGGLVQPGGSLRLSCTASGFSLSYYYMSWVRQAPGKGLEWVGIIGPGDYTDYASWAKGRFTISKDTSKNTVYLQMNSLRAEDTAVYYCARGDDNSGWGEDIWGQGTLVTVSS
B2: 610-min (scFv)
chain: EIVMTQSPSTLSASVGDRVIITCQASQSISSWLSWYQQKPGKAPKLLIYQASTLASGVPSRFSGSGSGAEFTLTISSLQPDDFATYYCQNNYGFRSYGGAFGQGTKLTVLGGGGGSGGGGSGGGGSGGGGSEVQLVESGGGLVQPGGSLRLSCAASGIDFSGAYYMGWVRQAPGKGLEWVSYIDYDGDRYYASWAKGRFTISRDNSKNTLYLQMNSLRAEDTAVYYCAKSDYSSGWGTDIWGQGTLVTVSS
B3: 610-max (scFv)
chain: B2 chain with A69T, A154T, S181G, R203K, N205T, L210V, K229R
B4: 435-max (scFv)
chain: EIVMTQSPSTLSASVGDRVIITCQASQSIGSSLAWYQQKPGKAPKLLIYTAANLASGVPSRFSGSRSGAEFTLTISSLQPDDFATYYCQNFATSDTVTFGQGTKLTVLGGGGGSGGGGSGGGGSGGGGSEVQLVESGGGLVQPGGSLRLSCKASGFSLNTNYWMCWVRQAPGKGLEWVGCMYTGSYNRAYYASWAKGRFTSSKDTSKNTVYLQMNSLRAEDTAVYYCAKGSNWYSDLWGQGTLVTVSS
B5: 375-min (scFv)
chain: EIVMTQSPSTLSASVGDRVIITCQASENINIWLSWYQQKPGKAPKLLIYQASKLASGVPSRFSGSGSGAEFTLTISSLQPDDFATYYCQNNYSYNRYGAPFGQGTKLTVLGGGGGSGGGGSGGGGSGGGGSEVQLVESGGGLVQPGGSLRLSCAASGFSFTTTDYMCWVRQAPGKGLEWVSCILAGDGSTYYANWAKGRFTISRDNSKNTLYLQMNSLRAEDTAVYYCAKSDPASSWSFALWGQGTLVTVSS
B6: 375-max (scFv)
chain: B5 chain with A69T, E70Q, A154K, S181G, I202G, R204K, N206T, L211V, K230R
B7: EP6_min (scFv)
chain: EIVMTQSPSTLSASVGDRVIITCQASESIYSGLAWYQQKPGKAPKLLIYQASTLASGVPSRFSGSGSGAEFTLTISSLQPDDFATYYCQQGFGTSNVENPFGQGTKLTVLGGGGGSGGGGSGGGGSGGGGSEVQLVESGGGLVQPGGSLRLSCAASGFSLSRYGVSWVRQAPGKGLEWVSTIGEAGRAYYANWARSRFTISRDNSKNTLYLQMNSLRAEDTAVYYCAKGEVFNNGWGAFNIWGQGTLVTVSS
B8: EP15_min (scFv)
chain: EIVMTQSPSTLSASVGDRVIITCQASENIYTSLAWYQQKPGKAPKLLIYSASTLASGVPSRFSGSGSGAEFTLTISSLQPDDFATYYCQQGFATSNVENPFGQGTKLTVLGGGGGSGGGGSGGGGSGGGGSEVQLVESGGGLVQPGGSLRLSCAASGFTFSRYGVSWVRQAPGKGLEWVSAIGETGRAYYANWAKSRFTISRDNSKNTLYLQMNSLRAEDTAVYYCAKGEEFNNGWGAFNIWGQGTLVTVSS
B9: EP42_min (scFv)
chain: EIVMTQSPSTLSASVGDRVIITCQSTESVYKNNYLAWYQQKPGKAPKLLIYDASTLASGVPSRFSGSGSGAEFTLTISSLQPDDFATYYCAGYYRSGFGTANGSFGQGTKLTVLGGGGGSGGGGSGGGGSGGGGSEVQLVESGGGLVQPGGSLRLSCAASGFTFRNDAISWVRQAPGKGLEWVSYISDWGIKYYASWVKGRFTISRDNSKNTLYLQMNSLRAEDTAVYYCAKGAPGAGDNGIWGQGTLVTVSS

target: T1, recombinant human VEGF165 (PeproTech EC Ltd.) (human, UniProt P15692-4 27-191); experiment: SPR BIAcore T100, hVEGF165 amine-coupled on CM4 chip, scFv as analyte
T1 construct: Amine-coupled to a CM4 sensor chip; also called hVEGF165
T1 sequence (P15692 other isoform, or with tags, fused parts or gaps limits assumed): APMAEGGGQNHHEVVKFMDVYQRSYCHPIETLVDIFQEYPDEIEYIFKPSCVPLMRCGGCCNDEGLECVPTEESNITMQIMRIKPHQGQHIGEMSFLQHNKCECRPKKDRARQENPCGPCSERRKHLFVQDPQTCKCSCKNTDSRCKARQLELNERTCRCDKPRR

| Binder | Kd [nM] | koff [s⁻¹] | kon [M⁻¹ s⁻¹] |
| --- | --- | --- | --- |
| B1 | 9.21 | 0.0173 | 1.88e+06 |
| B2 | 10.6 | 0.00265 | 251000 |
| B3 | 1.18 | 0.000601 | 509000 |
| B4 | 4.53 | 0.000755 | 167000 |
| B5 | 5.41 | 0.00501 | 927000 |
| B6 | 2.68 | 0.00655 | 2.44e+06 |

target: T2, Human TNFa N-his trimers (human, UniProt P01375 77-233); experiment: SPR BIAcore T100, His-tagged human TNF trimers captured on NTA chip, scFv as analyte
T2 construct: Captured at 5 nM on an NTA sensor chip by the N-terminal his-tags; also called His-tagged TNF (produced at ESBATech); not shown: N-terminal his-tag
T2 sequence (P01375 77-233 limits assumed): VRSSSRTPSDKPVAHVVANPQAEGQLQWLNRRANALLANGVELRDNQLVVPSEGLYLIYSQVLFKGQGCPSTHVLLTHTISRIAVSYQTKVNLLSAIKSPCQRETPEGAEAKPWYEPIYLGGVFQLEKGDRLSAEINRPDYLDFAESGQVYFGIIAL

| Binder | Kd [nM] |
| --- | --- |
| B7 | 106 |
| B8 | 262 |
| B9 | 58.7 |

From patent EP3964526A1 (Novartis AG, dated 2022)
